Source: publication PMC2879449 (Biochemistry, 2010)

Molecular target: the molecule itself
Test: crystal structure

B1: WlbB, an N-acetyltransferase from Bordetella petrii (enzyme, UniProt A9IH93 1-190, looked up)
chain: MATIHPTAIVDEGARIGAHSRIWHWVHICGGAEIGEGCSLGQNVFVGNRVRIGNRVKIQNNVSVYDNVFLEDDVFCGPSMVFTNVYNPRAAIERKSEYRDTIVRQGATLGANCTVVCGATIGRYAFVGAGAVVNKDVPDFALVVGVPARQIGWMSRHGEQLDLPLRGNAEATCPHTGERYILTDGVCRLA
stoichiometry N: 3
